# According to the supplement of paper PMC10567573:
# B1: ZNF232 (parent)
# chain: HSGEKPFICKECGKAYGWCSELIR
# B2: FCHO1 (parent)
# chain: HLELTRKLQDLIKDVLRYGEEQLK
# Variants of: B1
# Assay: protein stability index of a GFP-peptide fusion (GPS, HEK-293T) (PSI 1-6); higher = more stable
# Conditions: c terminus: a fixed tail appended
# 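Note: lentivirally expressed fusions sorted by FACS into six bins by GFP to DsRed ratio, PSI derived from sequencing read proportions per bin multiplied by bin number.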
row,Variant,protein stability index
1,HSGEKPFICKECGKAYGWCSELIM,1.74
2,HSGEKPFICKECGKAYGWCSELIK,2.08
3,HSGEKPFICKECGKAYGWCSELIT,2.32
4,HSGEKPFICKECGKAYGWCSELIG,1.45
5,HSGEKPFICKECGKAYGWCSELIP,2.66
6,HSGEKPFICKECGKAYGWCSELIL,1.71
7,HSGEKPFICKECGKAYGWCSELIC,4.05
8,HSGEKPFICKECGKAYGWCSELIN,2.03
9,HSGEKPFICKECGKAYGWCSELIH,3.51
10,HSGEKPFICKECGKAYGWCSELIY,1.61
11,HSGEKPFICKECGKAYGWCSELID,2.85
12,HSGEKPFICKECGKAYGWCSELIW,2.09
13,HSGEKPFICKECGKAYGWCSELIQ,2.44
14,HSGEKPFICKECGKAYGWCSELII,1.99
15,HSGEKPFICKECGKAYGWCSELIF,2.23
16,HSGEKPFICKECGKAYGWCSELIV,2.02
17,HSGEKPFICKECGKAYGWCSELIA,1.86
18,HSGEKPFICKECGKAYGWCSELIS,2.23
19,HSGEKPFICKECGKAYGWCSELIE,2.33
20,HSGEKPFICKECGKAYGWCSEVIR,2.09
21,HSGEKPFICKECGKAYGWCSESIR,1.92
22,HSGEKPFICKECGKAYGWCSERIR,2.08
23,HSGEKPFICKECGKAYGWCSEQIR,1.65
24,HSGEKPFICKECGKAYGWCSEYIR,2.18

row,Variant,protein stability index
1,HSGEKPFICKECGKAYGWCSENIR,1.81
2,HSGEKPFICKECGKAYGWCSEPIR,3.26
3,HSGEKPFICKECGKAYGWCSETIR,1.72
4,HSGEKPFICKECGKAYGWCSEMIR,2.08
5,HSGEKPFICKECGKAYGWCSEWIR,1.67
6,HSGEKPFICKECGKAYGWCSELHR,2.71
7,HSGEKPFICKECGKAYGWCSELDR,2.5
8,HSGEKPFICKECGKAYGWCSELNR,1.97
9,HSGEKPFICKECGKAYGWCSELAR,2.04
10,HSGEKPFICKECGKAYGWCSELKR,2.45
11,HSGEKPFICKECGKAYGWCSELSR,1.78
12,HSGEKPFICKECGKAYGWCSELLR,2.31
13,HSGEKPFICKECGKAYGWCSELCR,3.64
14,HSGEKPFICKECGKAYGWCSELQR,2.58
15,HSGEKPFICKECGKAYGWCSELFR,1.98
16,HSGEKPFICKECGKAYGWCSELER,2.24
17,HSGEKPFICKECGKAYGWCSELYR,1.82
18,HSGEKPFICKECGKAYGWCSELMR,1.97
19,HSGEKPFICKECGKAYGWCSELRR,2
20,HSGEKPFICKECGKAYGWCSELTR,1.89
21,HSGEKPFICKECGKAYGWCSELPR,2.28
22,HSGEKPFICKECGKAYGWCSELVR,1.97
23,HSGEKPFICKECGKAYGWCSELWR,2.3
24,HSGEKPFICKECGKAYGWCSELGR,2.09

# Variants of: B2
# Assay: as above
# Conditions: c terminus: a fixed tail appended
row,Variant,protein stability index
1,ILELTRKLQDLIKDVLRYGEEQLK,1.74
2,KLELTRKLQDLIKDVLRYGEEQLK,1.46
3,MLELTRKLQDLIKDVLRYGEEQLK,2.23
4,RLELTRKLQDLIKDVLRYGEEQLK,5.3
5,NLELTRKLQDLIKDVLRYGEEQLK,3.04
6,FLELTRKLQDLIKDVLRYGEEQLK,1.99
7,YLELTRKLQDLIKDVLRYGEEQLK,2.02
8,ELELTRKLQDLIKDVLRYGEEQLK,2.81
9,GLELTRKLQDLIKDVLRYGEEQLK,2.03
10,VLELTRKLQDLIKDVLRYGEEQLK,1.31
11,QLELTRKLQDLIKDVLRYGEEQLK,2.8
12,PLELTRKLQDLIKDVLRYGEEQLK,1.79
13,DLELTRKLQDLIKDVLRYGEEQLK,2.68
14,TLELTRKLQDLIKDVLRYGEEQLK,2.28
15,SLELTRKLQDLIKDVLRYGEEQLK,2.96
16,WLELTRKLQDLIKDVLRYGEEQLK,1.9
17,LLELTRKLQDLIKDVLRYGEEQLK,1.55
18,HLPLTRKLQDLIKDVLRYGEEQLK,2.72
19,HLQLTRKLQDLIKDVLRYGEEQLK,3.73
20,HLFLTRKLQDLIKDVLRYGEEQLK,2.54
21,HLNLTRKLQDLIKDVLRYGEEQLK,3.5
22,HLLLTRKLQDLIKDVLRYGEEQLK,2.7
23,HLMLTRKLQDLIKDVLRYGEEQLK,3.36

row,Variant,protein stability index
1,HLHLTRKLQDLIKDVLRYGEEQLK,3.08
2,HLKLTRKLQDLIKDVLRYGEEQLK,2.17
3,HLCLTRKLQDLIKDVLRYGEEQLK,2.31
4,HLALTRKLQDLIKDVLRYGEEQLK,2.96
5,HLILTRKLQDLIKDVLRYGEEQLK,2.88
6,HLDLTRKLQDLIKDVLRYGEEQLK,2.84
7,HNELTRKLQDLIKDVLRYGEEQLK,2.76
8,HWELTRKLQDLIKDVLRYGEEQLK,1.41
9,HCELTRKLQDLIKDVLRYGEEQLK,3.33
10,HEELTRKLQDLIKDVLRYGEEQLK,2.63
11,HRELTRKLQDLIKDVLRYGEEQLK,2.11
12,HIELTRKLQDLIKDVLRYGEEQLK,1.87
13,HMELTRKLQDLIKDVLRYGEEQLK,5.22
14,HKELTRKLQDLIKDVLRYGEEQLK,2.13
15,HQELTRKLQDLIKDVLRYGEEQLK,2.94
16,HDELTRKLQDLIKDVLRYGEEQLK,2.92
17,HHELTRKLQDLIKDVLRYGEEQLK,1.64
18,HYELTRKLQDLIKDVLRYGEEQLK,2.04
19,HAELTRKLQDLIKDVLRYGEEQLK,2.42
20,HFELTRKLQDLIKDVLRYGEEQLK,1.95
21,HTELTRKLQDLIKDVLRYGEEQLK,2.88
22,HGELTRKLQDLIKDVLRYGEEQLK,3.28
23,HVELTRKLQDLIKDVLRYGEEQLK,3.29
